Kd data for one molecule are collected here from patent US20030203415A1 (published 2003).

Ends that are not written are not given here. fluorescein = fluorescein label attached through NHS-fluorescein to the ε-amino side group of the C-terminal lysine

The target of assay [1] is T1, H6NA3 (UniProt P06731 35-144; P06731 499-590, limits assumed).
T1 construct: domain: N domain;domain: A3 domain; recombinant truncated target
T1 sequence: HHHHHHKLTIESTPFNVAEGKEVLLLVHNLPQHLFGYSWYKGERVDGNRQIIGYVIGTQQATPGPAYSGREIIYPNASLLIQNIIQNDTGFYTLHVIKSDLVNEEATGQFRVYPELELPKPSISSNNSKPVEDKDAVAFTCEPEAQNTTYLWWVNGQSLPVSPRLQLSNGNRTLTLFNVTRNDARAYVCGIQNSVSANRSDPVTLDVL
Briefly: fluorescence anisotropy, direct binding. Here is the method: (§1) Dissociation constants were determined using fluorescence anisotropy, through direct binding measurements and competition experiments. In direct binding assays, the concentration of the fluorescein-labeled peptide is held constant and the concentration of H6NA3 is varied. In the competition experiment, the concentration of the fluorescein-labeled peptide and the H6NA3 target are held constant and the concentration of a competitor (cT84.66, unlabeled) is varied. The change in anisotropy is fit to the appropriate equation via nonlinear regression to obtain the apparent Kd.

Assay [2] has as its target T1, H6NA3. The experiment in a line: fluorescence anisotropy. As to the method:
as §1

The target of assay [3] is T1, H6NA3. The experiment in a line: fluorescence anisotropy, competition with unlabeled cT84.66. As to the method: as §1
A general note: Fluorescence polarisation rises when a labelled molecule tumbles more slowly, as on binding a larger partner.

B1: P-E01 (peptide)
peptide: SNWDCMFGAEGWACSPWAPGGEGGGSK(fluorescein)-NH2
modifications: not fully specified (bridges); printed as SNWDCMFGAEGWACSPWAPGGEGGGSK-CONH2; cysteine pairing not given here; also: fluorescein on C-terminal Lys ε-amino in labelled aliquots
notes: synthetic 27-mer
One may read the Kd as the constant that tells how readily two partners part at equilibrium. The low end stands for a tighter complex, the high end for a looser complex. B1: the Kd with H6NA3 [1] stood at 6.9 µM; with H6NA3 [2], 7 µM; with H6NA3 [3], 5.3 µM.
